The values that follow are results of earlier work, collected in publication PMC9038201.

In the data set the target is ubiquitin (Homo sapiens) (UniProt P0CG47).

Consider PLpro (from UniProt P0DTD1), for which the Kd is 120 µM.
